B1: CPEB3 Ribozyme (parent)
chain: GGGGGCCACAGCAGAAGCGUUCACGUCGCGGCCCCUGUCAGAUUCUGGUGAAUCUGCGAAUUCUGCUGU

Variants of: B1
Test: self-cleavage, relative activity (ratio to wild type); higher = more cleavage; co-transcriptional

Variant	self-cleavage
A40C A52G	0.583
C39A C63U	0.776
C39A C63G	0.407
C39A C63A	0.465
U38G A59G	0.132
U38G A59C	0.232
C39G G47U	0.989
C39G G47C	0.986
C39G G47A	0.996
U38C U46C	0.966
U38C U46A	0.943
A40C C57A	0.2
A40C C57G	0.316
U38C G65C	0.519
U38C G65U	0.495
U38C G65A	0.746
C39G A42C	0.553
C39G A42U	0.725
C39G A42G	0.739
U38C G56U	0.658
U38C G56C	0.401
U38C G56A	0.879
U38G U49G	0.264
U38G U49C	0.231

Variant	self-cleavage
U38G U49A	0.178
C39U C54A	0.526
C39U C54G	0.546
C39U C54U	0.853
C39U C66U	0.885
C39U C66A	0.541
U38C A52C	0.921
C39A U53A	0.447
C39A U53G	0.351
C39A U53C	0.37
U38C U43C	0.858
U38C U43A	0.8
U38C U49G	0.916
U38C U49C	0.999
C39A U46C	0.808
C39A U46G	0.957
U38C A51G	0.88
U38C A51C	0.87
U38C A59U	0.316
C39G U46A	0.997
C39G U46G	0.907
C39U A40C	0.756
C39U A40G	0.813
C39G G48U	0.966

Variant	self-cleavage
C39G G48A	0.957
C39U U69C	1.04
U38C C54U	0.948
U38C C54G	0.643
U38G C66U	0.194
U38G C66G	0.229
U38G C66A	0.285
C39A U49A	0.902
U38G A42U	0.178
U38G A42C	0.264
U38G A42G	0.189
C39G G65A	0.599
C39U U44A	0.517
U38C C45A	0.885
U38C C45U	0.922
C39G C66G	0.566
C39G C66U	0.961
C39U U53C	0.382
C39U U53G	0.61
A40C A42U	0.363
A40C A42C	0.26
A40C A42G	0.482
C39G A51G	0.924
C39G A51U	0.853

Variant	self-cleavage
C39G A51C	0.718
C39U G65U	0.498
C39U G65A	0.56
C39U C57U	0.37
C39G A60U	0.354
C39G A60C	0.265
C39G A60G	0.794
C39G U67C	0.93
C39A C45U	0.708
C39A C45A	0.64
U38C U67C	0.949
U38C U67A	0.931
A40C G47A	0.791
A40C G47U	0.905
C39U G56C	0.887
C39U G56A	1
C39G C63A	0.494
C39G C63U	0.934
U38C G48A	0.963
C39A G50A	0.912
C39A G50U	0.847
C39A G50C	0.602
U38G U44G	0.346
U38G U44C	0.273

Variant	self-cleavage
C39A U43A	0.386
C39A U43C	0.517
C39A C54G	0.427
C39A C54U	0.765
C39A C54A	0.583
U38G U55A	0.196
U38G U55C	0.172
U38G U55G	0.283
C39A A60G	0.606
C39A A60C	0.286
C39A A60U	0.24
C39G G68A	0.95
C39G G68C	0.955
U38C G58C	0.929
U38C G58U	1.01
U38C G58A	0.895
C39A G47U	0.919
C39A G47A	0.949
C39G C45G	0.828
C39G C45A	0.787
C39G C45U	0.938
C39A A51G	0.802
C39A A51C	0.654
C39U G41U	0.337

Variant	self-cleavage
C39U G41A	0.475
C39U A51U	0.836
C39A G58U	0.948
C39A G58A	0.625
U38G U62C	0.261
U38G G48U	0.266
U38G G48C	0.236
C39U U46C	0.822
C39U U46G	0.997
C39A A52G	0.833
C39A A52U	0.673
C39A A52C	0.67
C39A U62A	0.549
U38C C63U	0.876
C39U G48U	0.941
C39U G48A	0.998
U38G G58C	0.236
U38G G58A	0.257
U38C G41A	0.736
U38C G41C	0.773
U38C C66G	0.717
U38C C66A	0.687
U38C G68A	0.992
U38C G68U	0.997

Variant	self-cleavage
U38C G68C	0.975
U38C U62C	0.633
U38C U62G	0.717
C39A A42G	0.35
C39A A42C	0.476
C39U U43C	0.687
U38C A60C	0.293
U38C A60G	0.78
C39A U61C	0.328
C39A U61G	0.402
C39A G68C	0.932
C39A G68U	0.976
U38C U55A	0.733
U38C U55C	0.556
C39G G56U	1
C39G G56A	0.882
C39G G56C	0.938
C39G U69C	1.05
A40C C66U	0.443
A40C C66G	0.36
A40C C66A	0.232
C39U A42C	0.542
C39U A42G	0.514
C39A U55C	0.736

Variant	self-cleavage
C39A U55G	0.808
C39U U55G	0.661
U38G G56A	0.722
U38G G56C	0.237
U38G G56U	0.672
A40C A51G	0.494
A40C A51U	0.324
C39A U69G	0.964
C39U G50U	0.895
C39U G50C	0.744
A40C G56U	0.401
A40C G56A	0.546
A40C G56C	0.341
U38G U64C	0.235
U38G U64G	0.25
U38G U64A	0.163
U38C C39A	0.299
U38C C39U	0.702
U38C C39G	0.448
A40C G41A	0.333
A40C G41C	0.324
C39G A59U	0.587
C39G A59C	0.488
U38G C57A	0.161

Variant	self-cleavage
U38G C57U	0.282
U38G C63A	0.155
U38C G50A	0.948
U38C G50C	0.942
U38C U61C	0.57
C39A C66A	0.435
C39A C66U	0.828
U38C U69C	1.06
U38C U69A	0.988
A40C G48U	0.884
C39G C54G	0.625
C39G C54U	0.888
C39G C54A	0.561
C39A C57U	0.346
C39A C57G	0.327
A40C C54U	0.523
A40C C54A	0.244
C39A A59C	0.386
U38G G50U	0.271
A40C C45A	0.534
A40C C45U	0.497
A40C C45G	0.531
C39U A52C	0.776
C39U A52U	0.78

Variant	self-cleavage
C39U A52G	0.948
U38C U44A	0.891
U38C U44C	0.856
C39G U55A	0.866
C39G A52U	0.858
C39G A52C	0.89
C39G A52G	0.917
A40C G50U	0.55
C39A G56C	0.904
C39A G56A	0.898
C39A G56U	0.984
C39U A59G	0.987
C39A U67C	0.918
C39A U67A	0.846
C39A U67G	0.932
C39A A40U	0.475
C39A A40C	0.835
C39A A40G	0.841
U38G U69G	0.42
U38G U69C	0.412
U38G U69A	0.352
U38G G68A	0.259
U38G A51C	0.293
C39U U64C	0.699

Variant	self-cleavage
C39U U64G	0.733
C39G G58U	1.01
C39G G58A	0.864
C39U U62G	0.622
C39U U62C	0.514
C39U U62A	0.702
C39G U62C	0.658
C39G U62A	0.788
C39G U62G	0.592
C39G A40C	0.606
C39G A40U	0.644
C39U C63G	0.451
C39U C63U	0.84
C39U C63A	0.54
U38G C45A	0.286
U38G C45U	0.28
C39G G50C	0.771
U38G U43G	0.213
U38G U43C	0.161
U38G U43A	0.247
U38G C54A	0.304
U38G U46C	0.294
U38G U46A	0.233
U38C G47U	0.925

Variant	self-cleavage
U38C G47A	0.933
C39G U44A	0.772
C39G U44C	0.58
C39G U44G	0.709
C39U U61A	0.766
C39U U61C	0.435
U38G G47A	0.272
U38G G47U	0.219
A40C A60U	0.217
C39A G41U	0.277
C39G G41C	0.351
C39G G41U	0.436
U38G C39A	0.8
A40C A59C	0.346
A40C A59G	0.515
U38G A60G	0.249
U38G A60U	0.331
C39A G48A	0.968
U38G G41C	0.226
C39A G65U	0.397
C39A G65C	0.361
C39A G65A	0.478
C39G U61G	0.597
C39G U61A	0.703

Variant	self-cleavage
C39G U43A	0.522
C39G U43G	0.448
C39U G58U	0.961
C39U G58A	0.873
C39U G58C	0.946
U38G G65A	0.257
U38G G65U	0.28
C39U A60U	0.266
C39U A60C	0.341
C39U A60G	0.667
A40C C63G	0.315
A40C C63U	0.388
C39U U49G	0.975
C39U U49A	0.971
U38C U64C	0.662
U38C U64G	0.785
C39A	0.903
C39U	0.954
C39G	0.967
C39G U64C	0.736
C39G U64G	0.642
C39G U49C	0.875
C39G U49A	0.923
U38G U67C	0.302

Variant	self-cleavage
U38G U67A	0.295
U38G U67G	0.273
C39U G47C	0.957
U38C C57G	0.369
C39U U67G	0.923
C39U U67C	0.882
C39U U67A	0.902
U38G A52C	0.275
U38G A52G	0.327
C39U G68U	0.95
C39U G68C	0.97
U38C A42U	0.827
U38C A42C	0.885
U38C A42G	0.938
C39G U53G	0.533
C39G U53C	0.516
C39G U53A	0.538
C39U C45U	0.862
C39A U44A	0.638
C39A U44G	0.562
C39A U44C	0.432
C39A U64C	0.544
